This note sets out measurements from US20120220530A1.

By Kd is commonly meant a measure of binding affinity in units of concentration. A high value points to lower affinity.

Experiment [1] has as its target shFcRn heterodimer produced by GeneArt AG (human) (UniProt P55899). As to the kind of experiment: SPR (Biacore), immobilized shFcRn. Background: SPR reads the build-up and loss of mass on a sensor chip optically.
Experiment [2] addresses soluble mouse FcRn (smFcRn) (mouse) (UniProt Q61559). As to the kind of experiment: SPR, FcRn immobilized, steady state (Req).

Chain of soluble mouse FcRn (smFcRn) (mouse) (Q61559 22-290): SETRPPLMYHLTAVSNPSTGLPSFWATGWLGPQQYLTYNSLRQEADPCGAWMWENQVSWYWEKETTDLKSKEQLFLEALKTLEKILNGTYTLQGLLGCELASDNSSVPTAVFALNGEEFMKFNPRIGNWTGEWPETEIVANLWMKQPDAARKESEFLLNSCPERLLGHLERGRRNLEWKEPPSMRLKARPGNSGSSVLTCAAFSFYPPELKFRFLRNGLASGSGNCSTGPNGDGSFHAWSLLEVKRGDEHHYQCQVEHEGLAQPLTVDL
Chain of shFcRn heterodimer produced by GeneArt AG (human) (P55899 24-290 limits assumed, chain 1 of 2): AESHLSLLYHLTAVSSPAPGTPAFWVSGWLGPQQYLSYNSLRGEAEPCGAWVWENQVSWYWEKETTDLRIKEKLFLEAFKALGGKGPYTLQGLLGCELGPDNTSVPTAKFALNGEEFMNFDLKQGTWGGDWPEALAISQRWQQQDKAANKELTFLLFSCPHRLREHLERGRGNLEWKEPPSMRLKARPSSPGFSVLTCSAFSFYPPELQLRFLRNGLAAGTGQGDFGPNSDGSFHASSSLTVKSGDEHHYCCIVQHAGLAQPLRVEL
Chain of shFcRn heterodimer produced by GeneArt AG (human) (chain, as listed by the source limits assumed, chain 2 of 2): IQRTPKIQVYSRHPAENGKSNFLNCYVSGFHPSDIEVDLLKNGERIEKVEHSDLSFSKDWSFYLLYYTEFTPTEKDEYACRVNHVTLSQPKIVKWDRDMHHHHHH

On to “HSA K573P conjugated to horseradish peroxidase (from UniProt P00433 31-338)”, for which the Kd in experiment [1] worked out at 0.02 µM.

“recombinant human serum albumin (RECOMBUMIN) (from UniProt P02768 25-609) (ligand; other documents disagree on this pair)” registered a Kd in experiment [2] of 86.2 µM.
